Our source for the lowest EndoSe concentration values is patent publication US20120225079A1.

This test addresses cleaved human IgG (human IgG cleaved with the endopeptidases IdeE and IdeE2) (human). The test is described as follows: cell-based or functional assay.

On to “recombinant mature EndoSe of Streptococcus equi subsp. equi (lacking the N-terminal signal sequence) (enzyme)”, for which the lowest EndoSe concentration at which activity was observed (SDS-PAGE) came to 2.6 µg/mL.
